Measurements reported in patent US20080027145A1, “Therapeutic Molecules and Methods for Generating and/or Selecting Same” (priority 2004, published 2008).

Assays:
mouse A1 ΔC20 (mouse) = mouse A1 ΔC20 (mouse) (UniProt Q07440); experiment: Biacore solution competition against immobilised mouse wtBimBH3
[1] = target: mouse Mcl-1 ΔN151 ΔC23 (mouse) (UniProt P97287); experiment: as above
[2] = target: mouse Mcl-1 ΔN151 ΔC23 (mouse) (UniProt P97287); experiment: from the solution competition affinities
[3] = target: m ^wtBimBH3 (83-108) (mouse); experiment: SPR (Biacore 3000), protein over immobilised m wtBimBH3
m ^wtBimBH3 (83-108) (mouse), sequence (peptide, as listed by the source limits assumed): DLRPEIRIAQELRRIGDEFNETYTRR

mouse Mcl-1 ΔN151 ΔC23 (mouse), sequence (P97287 other isoform, or with tags, fused parts or gaps mutant): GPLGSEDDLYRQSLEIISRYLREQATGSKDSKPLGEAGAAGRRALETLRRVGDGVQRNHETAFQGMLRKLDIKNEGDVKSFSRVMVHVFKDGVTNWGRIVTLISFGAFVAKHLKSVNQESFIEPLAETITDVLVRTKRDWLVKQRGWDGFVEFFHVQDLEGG
mouse A1 ΔC20 (mouse), sequence (Q07440 other isoform, or with tags, fused parts or gaps mutant): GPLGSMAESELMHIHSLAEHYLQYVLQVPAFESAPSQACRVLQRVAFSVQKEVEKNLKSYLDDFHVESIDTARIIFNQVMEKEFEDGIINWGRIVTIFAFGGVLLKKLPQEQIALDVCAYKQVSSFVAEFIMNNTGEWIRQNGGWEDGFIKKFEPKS

| Substance | IC50 (mouse A1 ΔC20 (mouse)) [nM] | IC50 [1] [nM] | fold weaker binding than to Bcl-xL [2] [fold] | Kd [3] [nM] | koff [3] [s⁻¹] | kon [3] [M⁻¹ s⁻¹] |
| --- | --- | --- | --- | --- | --- | --- |
| Bik (51-75) BH3 peptide, human | 58 | 1700 | 40 | – | – | – |
| Hrk (26-51) BH3 peptide, human | 46 | 370 | – | – | – | – |
| mouse A1 ΔC20 (from UniProt Q07440 1-152) | – | – | – | 0.5 | 0.00014 | 290000 |

Now from value to substance:

| IC50 (mouse A1 ΔC20 (mouse)) [nM] | IC50 [1] [nM] | fold weaker binding than to Bcl-xL [2] [fold] | Kd [3] [nM] | koff [3] [s⁻¹] | kon [3] [M⁻¹ s⁻¹] | Substance |
| --- | --- | --- | --- | --- | --- | --- |
| 5.7 | 5 | – | – | – | – | Puma (130-155) BH3 peptide, human |
| – | – | – | 0.2 | 0.00026 | 1.3e+06 | mouse Mcl-1 ΔN151 ΔC23 (from UniProt P97287 152-308) |
